US12545745B2, “Method for treating a degenerative neurological disorders comprising administering ASM inhibitor” (KYUNGPOOK NATIONAL UNIVERSITY INDUSTRY-ACADEMIC COOPERATION …, priority 2013, dated 2026)

Experiments:
APP/PS1 mice = assay: Fear conditioning test in APP/PS1 mice; format: in vivo, mouse; settings: 50 mg/kg i.p. twice weekly, vs PBS, FIG. 55D
Excerpt: More specifically, wild type mice, APP/PS1/ASM^+/− mice, ASM^+/− mice and APP/PS1 mice were used. On day 1 of the test, each mouse was individually placed into a conditioned chamber, and then after a 60-second exploratory period, a tone (10 kHz, 70 dB) was delivered for 10 seconds. This served as the conditioned stimulus (CS). The CS was coterminated with the unconditioned stimulus (US), an electrical footshock (0.3 mA, 1 s). The CS-US pairing was delivered twice at a 20-second intertrial interval. On day 2, each mouse was placed in the fear-conditioning chamber containing the same exact context, but without administration of a CS or footshock. […] On day 3, each mouse was placed in a test chamber that was different from the conditioning chamber. After a 60-second exploratory period, the tone was presented for 60 seconds without the footshock. Freezing response was measured to measure fear memory. The results are illustrated in FIG. 9 and FIG. 10.
For the fear conditioning test, on the first day, mice were placed in a conditioning chamber, and sound stimulation (10 kHz, 70 dB) and electrical stimulation (0.3 mA, 1 s) were given. On the second day, memory for space was checked without stimulation in the same conditioning chamber as on the first day, and on the third day, a memory test for fear was performed when only sound stimulation was given in another conditioning chamber.

β-amyloid = β-amyloid deposition in brain tissue of APP/PS1 mice (thioflavin S, immunofluorescence, ELISA); format: in vivo, mouse; settings: medulla and hippocampus, 50 mg/kg i.p. twice weekly, vs PBS
Experimental: First, the cerebral cortex and hippocampus tissue of each mouse prepared in Example 1-1 were isolated, and then a tissue fragment was obtained and this was dyed with thioflavin S according to a conventional known method. The results are illustrated in FIG. 3 (cerebral cortex) and FIG. 4 (hippocampus).
Also, immunofluorescence was performed according to a conventional known method using anti-20G10 (mouse, 1:1000) antibody against Aβ42, anti-G30 (rabbit, […]) antibody against Aβ40, anti-Iba-1 (rabbit, 1:500, Wako) antibody, anti-GFAP (rabbit, 1:500, DAKO) antibody and anti-active caspase3 (rabbit, 1:50, Chemicon) antibody. Tissue fragments were observed using a confocal laser scanning microscope equipped with Fluoview SV1000 imaging software (Olympus FV1000, Japan) or an Olympus BX51 microscope, and the percentage of the area of the dyed area with respect to the area of the entire tissue was quantified using Metamorph software (Molecular Devices).
Also, β-amyloid deposition was confirmed using commercially available ELISA kits (Biosource). More specifically, hemispheres of the brain of each mouse were homogenized in a buffer containing 0.02 M of guanidine. Thereafter, ELISA was performed for Aβ40 and Aβ42 according to the manufacturer's instructions.
(§1) After fixing the cerebral and hippocampal tissues of the mice, 0.5% thioflavin S (Sigma-Aldrich), anti-20G10 antibodies (mouse, 1:1000) against Aβ42, anti-G30 antibodies (rabbit, […]) against Aβ40, anti-GFAP antibodies (rabbit, 1:500, DAKO), or anti-Iba-1 antibodies (rabbit, 1:500, Wako) were co-cultured. The tissues were analyzed using a laser scanning confocal microscope equipped with Fluoview SV1000 imaging software (Olympus FV1000, Japan) or an Olympus BX51 microscope. Percentage of stained area to total tissue area was quantified and analyzed using Metamorph software (Molecular Devices).
(§2) After fixing the mouse brain and hippocampus, 0.5% thioflavin S (Sigma-Aldrich), anti-GFAP (rabbit, 1:500, DAKO), and anti-Iba-1 (rabbit, 1:500, WAKO) were co-cultured together. The regions were analyzed using a laser scanning confocal microscope equipped with Fluoview SV1000 imaging software (Olympus FV1000, Japan) or an Olympus BX51 microscope. Percentage of stained area to total tissue area was quantified and analyzed using Metamorph software (Molecular Devices).
Proteins were extracted from mouse brain and hippocampus, and the amounts of Abeta40 (KHB3481, Invitrogen) and Abeta42 (KHB3441, Invitrogen) were measured using ELISA.

ASM = molecular target: T1, ASM (Mus musculus, UniProt Q04519); assay: ASM activity / concentration level in serum (plasma) and brain tissue of APP/PS1 mice (UPLC); format: in vivo; settings: 7-month-old APP/PS1 mice, 50 mg/kg i.p. twice weekly, vs PBS; FIG. 51B
T1 construct: from tissue; host or cells: mouse serum/plasma and brain tissue (APP/PS1, RSD-stressed C57BL/6, FUS R521C mice)
T1 sequence (Q04519 45-627): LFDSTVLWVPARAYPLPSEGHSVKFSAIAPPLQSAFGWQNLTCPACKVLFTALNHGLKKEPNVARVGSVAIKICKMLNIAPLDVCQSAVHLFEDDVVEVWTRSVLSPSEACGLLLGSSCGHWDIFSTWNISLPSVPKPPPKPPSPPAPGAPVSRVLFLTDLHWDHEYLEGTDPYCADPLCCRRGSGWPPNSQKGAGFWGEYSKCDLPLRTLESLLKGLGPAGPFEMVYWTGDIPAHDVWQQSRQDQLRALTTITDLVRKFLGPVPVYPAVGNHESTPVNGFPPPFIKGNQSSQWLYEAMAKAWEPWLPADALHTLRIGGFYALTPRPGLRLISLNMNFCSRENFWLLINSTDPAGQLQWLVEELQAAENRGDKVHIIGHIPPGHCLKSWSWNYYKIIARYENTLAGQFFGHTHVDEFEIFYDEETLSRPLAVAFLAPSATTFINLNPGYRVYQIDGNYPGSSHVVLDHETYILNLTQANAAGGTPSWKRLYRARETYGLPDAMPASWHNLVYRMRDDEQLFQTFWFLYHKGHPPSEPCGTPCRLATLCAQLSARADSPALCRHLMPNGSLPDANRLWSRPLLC
Experimental: More specifically, 3 μl of plasma, brain tissue and fibroblast samples from each mouse were mixed with an ASM activity buffer, and stored at 37° C. The hydrolysis reaction was completed by adding 114 μl of ethanol to the mixed solution, and then the mixed solution was centrifuged. 30 μl of the supernatant was transferred into a glass vial, and then 5 μl was applied to the UPLC system. The ASM concentration level was quantified in comparison with a bodipy (aminoacetaldehyde) combined with sphingomyelin and ceramide. The sphingomyelin and ceramide levels were extracted and quantified according to a known method, by extracting lipid from the sample, resuspending the dried lipid extract in 25 μl of 0.2% Igepal CA-630 (Sigma-Aldrich), and quantifying the concentration level of each lipid using the UPLC system. […] The animal test conducted was approved by the Kyungpook National University Institutional Animal Care and Use Committee (IACUC). Transgenic mouse line overexpressing APPswe (hAPP695swe) and PS1 (presenilin-1M146V) based on C57BL/6 mice (Charles River, UK) were used as Alzheimer's animal models [hereinafter, APP mice: mice overexpressing APPswe, PS1 mice: overexpressing presenilin-1M146V; GlaxoSmithKline]. […] The concentration level of ASM was measured as follows. Specifically, 3μ ? of mouse serum, brain tissue and fibroblast samples were mixed with ASM activity buffer and stored at 37° C. 114 μ ? of ethanol was added to terminate the hydrolysis reaction, followed by centrifugation. […] The ASM concentration levels were quantified by comparison with sphingomyelin and Bodipy (aminoacetaldehyde) conjugated with ceramide. The extraction and quantification of the sphingomyelin and ceramide was carried out by extracting and drying the lipids from the sample according to a known conventional method, and resuspending the dried lipid extract to 25 μl of 0.2% Igepal CA-630 (Sigma-Aldrich), and the concentration levels of each lipid were quantitated using the UPLC system. […] The concentration level of ASM was measured as follows. […]

astrocytes and microglia = assay: Neuroinflammation in brain of APP/PS1 mice (GFAP, Iba-1 staining, cytokine real-time PCR); format: in vivo, mouse; settings: cerebral medulla and hippocampus, vs PBS
Experimental: as §1
To quantify the expression levels of inflammatory cytokines (TNF-α, […] and IL-6), real-time quantitative PCR was used. […] Also, using Corbett research RG-6000 real-time PCR instrument, real-time quantitative PCR was performed with repeated 40 cycle (one cycle consisting of 95° C., 10 minutes; 95° C., 10 seconds; 58° C., 15 seconds; 72° C., 20 seconds). […]
as §2, with “Percentage of stained area to total tissue area was quantified and analyzed using Metamorph software (Molecular Devices).” left out

level of ASM concentration (ASM activity) in the plasma (ASM): remarkably low
B1: ASM-ab 23A12C3: self-made monoclonal ASM antibody, Koma biotech; heavy chain SEQ ID NO. 29, light chain SEQ ID NO. 30 (antibody)
heavy: MGWSWIFLFLLSGTAGVHSEVQLQQSGPVLVKPGASVKMSCKASGYTFTDYYMNWVKQSHGKSLEWIGVINPYNDGTSYNQKFKGKATLTVDKSSSTAYMELNSLTSEDSAVYYCAREKLYYYGRDYAMDYWGQGTSVTVSSAKTTPPSVYPLAPGSAAQTNSMVTLGCLVKGYFPEPVTVTWNSGSLSSGVHTFPAVLQSDLYTLSSSVTVPSSTWPSQTVTCNVAHPASSTKVDKKIVPRDCGCKPCICTVPEVSSVFIFPPKPKDVLTITLTPKVTCVVVDISKDDPEVQFSWFVDDVEVHTAQTKPREEQINSTFRSVSELPIMHQDWLNGKEFKCRVNSAAFPAPIEKTISKTKGRPKAPQVYTIPPPKEQMAKDKVSLTCMITNFFPEDITVEWQWNGQPAENYKNTQPIMDTDGSYFVYSKLNVQKSNWEAGNTFTCSVLHEGLHNHHTEKSLSHSPGK
light: MSSAQFLGLLLLCFQGTRCDIQMTQTTSSLSASLGDRVTISCRSSQDISNYLNWCQQKPDGTVKLLIYYTSRLHSGVPSRFSGSGSGTDYSLTISNLEQEDIATYFCQQDNTLPYTFGGGTKLEIKRADAAPTVSIFPPSSEQLTSGGASVVCFLNNFYPKDINVKWKIDGSERQNGVLNSWTDQDSKDSTYSMSSTLTLTKDEYERHNSYTCEATHKTSTSPIVKSFNRNEC
modifications: 23A12C3_Heavy chain; 23A12C3_Light chain
notes: self-made monoclonal ASM antibody, Koma biotech; 30
impairments in spatial memory, cognition and memory formation (fear conditioning test) (APP/PS1 mice): improved | deposition of fibrillar Aβ (thioflavin S) (β-amyloid; FIG. 52A, 52B): significantly lower | deposition of Aβ40 (ELISA) (β-amyloid; FIG. 53A, 53B): significantly lower | deposition of Aβ42 (ELISA) (β-amyloid; FIG. 53A, 53B): significantly lower | activity of microglia (Iba-1) (astrocytes and microglia; FIG. 54A): significantly reduced | activity of astrocytes (GFAP) (astrocytes and microglia; FIG. 54B): significantly reduced
